In the RNAGym collection of RNA variant scans (doi:10.7554/elife.90254) one finds self-cleavage data, which are given here for 20 variants.

To fix the notation:
B1: LINE1-full (parent)
chain: UACGUAGGUGGUUUUCCCCUGAUAGUGCUAAGGGGGCCUGGAAGUUUGGACUGGGCAGAGCUCAACACAGCGUGGCAAAGUGGCUGUGGCUAGACUGCCUCUCUGGAUUCCUCGUCACUCAGCAGGGCAUCUCUGAGAGAAAUGCC

The variants in this series derive from B1. Description: self-cleavage, relative activity (ratio to wild type); higher = more cleavage; in vitro, sequencing; the parent is a self-cleaving ribozyme.
With UACAUAGGUGGUUUUCCCCUGAUAGUGCUAAGGGGGCCUGGAAGUUUGGACUGGGCAGAGCUCAACACAGCGUGGCAAAGUGGCUGUGGCUAGACUGCCUCUCUGGAUUCCUCGUCACUCAGCAGGGCAUCUAUGAGAGAAAUGCC [G4A C133A], the self-cleavage was determined as 0.79.
The value for UACAUAGGUGGUUUUCCCCGGAUAGUGCUAAGGGGGCCUGGAAGUUUGGACUGGGCAGAGCUCAACACAGCGUGGCAAAGUGGCUGUGGCUAGACUGCCUCUCUGGAUUCCUCGUCACUCAGCAGGGCAUCUCUGAGAGAAAUGCC [G4A U20G] was 0.62; that for UACAUAGGUGGUUUUCCCCUGAUAGUGCUAAGGGGGCCUAGAAGUUUGGACUGGGCAGAGCUCAACACAGCGUGGCAAAGUGGCUGUGGCUAGACUGCCUCUCUGGAUUCCUCGUCACUCAGCAGGGCAUCUCUGAGAGAAAUGCC [G4A G40A] was 1.24; that for UACAUAGGUGGUUUUCCCCUGAUAGAGCUAAGGGGGCCUGGAAGUUUGGACUGGGCAGAGCUCAACACAGCGUGGCAAAGUGGCUGUGGCUAGACUGCCUCUCUGGAUUCCUCGUCACUCAGCAGGGCAUCUCUGAGAGAAAUGCC [G4A U26A] was 0.82.
The value for UACAUAGGUGGUUUUCCCCUGAUAGUGCUAAGGGGGCCUGGAAGUUUGGACUGGGCAGAGCUCAACACAGCGAGGCAAAGUGGCUGUGGCUAGACUGCCUCUCUGGAUUCCUCGUCACUCAGCAGGGCAUCUCUGAGAGAAAUGCC [G4A U73A] was 0.97; that for UACAUAGGUGGUUUUCCCCUGAUAGUGCUAAGGGGGCCUGGAAGUUUGGACUGGGCAGAGCUCAACACAGCGCGGCAAAGUGGCUGUGGCUAGACUGCCUCUCUGGAUUCCUCGUCACUCAGCAGGGCAUCUCUGAGAGAAAUGCC [G4A U73C] was 1.68.
For UACAUAGGUGGUUUUCCCCUGAUAGUGCUAAGGGGGCCUGGAAGUUUGGACUGGGCAGAGCUCAACACAGCGUGGCAAAGUGGCCGUGGCUAGACUGCCUCUCUGGAUUCCUCGUCACUCAGCAGGGCAUCUCUGAGAGAAAUGCC [G4A U85C], the self-cleavage turned out to be 0.13.
UACAUAGGUGGUUUUCCCCUGAUAGUGCUAAGGGGGCCUGGAAGUUUGGACUGGGCAGAGCGCAACACAGCGUGGCAAAGUGGCUGUGGCUAGACUGCCUCUCUGGAUUCCUCGUCACUCAGCAGGGCAUCUCUGAGAGAAAUGCC [G4A U62G]: the self-cleavage amounted to 0.
The value for UACAUAGGUGGUUUUCCCCUGACAGUGCUAAGGGGGCCUGGAAGUUUGGACUGGGCAGAGCUCAACACAGCGUGGCAAAGUGGCUGUGGCUAGACUGCCUCUCUGGAUUCCUCGUCACUCAGCAGGGCAUCUCUGAGAGAAAUGCC [G4A U23C] was 1.11.
With UACAUAGGUGGUUUUCCCCUAAUAGUGCUAAGGGGGCCUGGAAGUUUGGACUGGGCAGAGCUCAACACAGCGUGGCAAAGUGGCUGUGGCUAGACUGCCUCUCUGGAUUCCUCGUCACUCAGCAGGGCAUCUCUGAGAGAAAUGCC [G4A G21A], the self-cleavage is 0.76.
As to UACAUAGGUGGUUUUCCCCUGAUAGUGCUAAGGGGGCCUGGAAGUUUGGACUGGGCAGAGCUCAACACAGCGUGGCAAAGAGGCUGUGGCUAGACUGCCUCUCUGGAUUCCUCGUCACUCAGCAGGGCAUCUCUGAGAGAAAUGCC [G4A U81A], the self-cleavage came out at 1.34.
To UACAUAGGUGAUUUUCCCCUGAUAGUGCUAAGGGGGCCUGGAAGUUUGGACUGGGCAGAGCUCAACACAGCGUGGCAAAGUGGCUGUGGCUAGACUGCCUCUCUGGAUUCCUCGUCACUCAGCAGGGCAUCUCUGAGAGAAAUGCC [G4A G11A] belongs 0.58; to UACAUAGGUGGUUAUCCCCUGAUAGUGCUAAGGGGGCCUGGAAGUUUGGACUGGGCAGAGCUCAACACAGCGUGGCAAAGUGGCUGUGGCUAGACUGCCUCUCUGGAUUCCUCGUCACUCAGCAGGGCAUCUCUGAGAGAAAUGCC [G4A U14A], 0.75; to UACAUAGGUGGUUCUCCCCUGAUAGUGCUAAGGGGGCCUGGAAGUUUGGACUGGGCAGAGCUCAACACAGCGUGGCAAAGUGGCUGUGGCUAGACUGCCUCUCUGGAUUCCUCGUCACUCAGCAGGGCAUCUCUGAGAGAAAUGCC [G4A U14C], 0.59.
To UACAUAGGUGGUUUUCCCCUGAUAGUGCUAAGGGGGCCUGGAAGUUUGGACUGGGCAGAGCUCAACACAGCGUGGCAAAGUGGCUGCGGCUAGACUGCCUCUCUGGAUUCCUCGUCACUCAGCAGGGCAUCUCUGAGAGAAAUGCC [G4A U87C] belongs 0.1; to UACAUAGGUGGUUUUCCCCUGAUAGUGCUAAGGGGGCCUGGAAGUUUGGACUGAGCAGAGCUCAACACAGCGUGGCAAAGUGGCUGUGGCUAGACUGCCUCUCUGGAUUCCUCGUCACUCAGCAGGGCAUCUCUGAGAGAAAUGCC [G4A G54A], 0.6.
For UACAUAGGUGGUUUUCCCCUGAUAGUGCUAAGGGGGCCUGGAAGUUUGGACCGGGCAGAGCUCAACACAGCGUGGCAAAGUGGCUGUGGCUAGACUGCCUCUCUGGAUUCCUCGUCACUCAGCAGGGCAUCUCUGAGAGAAAUGCC [G4A U52C], the self-cleavage is 0.88.
As to UACAUAGGUGGUUUUCCCCUGAUAGUGCUAAGGGGGCCUGGAAGUUAGGACUGGGCAGAGCUCAACACAGCGUGGCAAAGUGGCUGUGGCUAGACUGCCUCUCUGGAUUCCUCGUCACUCAGCAGGGCAUCUCUGAGAGAAAUGCC [G4A U47A], the self-cleavage turned out to be 0.52.
Take UACAUAGGUGGUUUUCCCCUGAUAGUGCUAAGGGGGCCUGGAAGUUUGGACUGGGCAGAGCUCAACACAGCGUGGCAAAGUGGCUGUGGCUAGACUGCCUCUCUGGAUUCCUCGUCACUCAGCAGGGCAUCUCUGAGAAAAAUGCC [G4A G139A]: the self-cleavage worked out at 1.21.
Turning to UACAUAGGUGGGUUUCCCCUGAUAGUGCUAAGGGGGCCUGGAAGUUUGGACUGGGCAGAGCUCAACACAGCGUGGCAAAGUGGCUGUGGCUAGACUGCCUCUCUGGAUUCCUCGUCACUCAGCAGGGCAUCUCUGAGAGAAAUGCC [G4A U12G], the self-cleavage amounted to 1.23.
